Measured values: paper PMC8448839

Target: TOR complex 1 (TORC1) in lysate of FLAG-Tor1 expressing yeast cells (TS269), P35169;P38873
Assay: pull-down (GST) from yeast cell lysate, western blot quantified
Conditions: chain shown with the change, read off a plot, scale: FLAG-Tor1 / GST-Pib2
[1] = without glutamine, parent: est. 1.0

B1: GST-Pib2(304-635), P53191 V626A (protein)
chain: LPQPASSTNLNFNSNKHKSNVRQISNPKKPLYIPAVLRKVSETNITNDDLLNATLSSYYKKASNLEHGFNPSKSQSASVQNANNLRIISSQSSVQSNTSSILESYKNKISSYLFPNSIPNSDRINLIPTISNRNSARVNPPTKDHWIPDSKRNSCRYCHKPFTLWERKHHCRHCGDIFCQDHLRHWLYLDSQANFIMINELNNGGINGGGTLCKICDDCLVEYENLSTTNHNANTNEDNINVEEGEDDDNDNRKKLRNYYKNRQMNALFRPKKGGSSQEHATVDRDTTTPIQVKSNDEEADNENTGGEQEEGNDVLGSVIGSAPANWNWSSF
response (25 mM Gln, parent: est. 6.2): 2.7
response [1]: 0.6

B2: GST-Pib2(304-635), P53191 A628T (protein)
chain: LPQPASSTNLNFNSNKHKSNVRQISNPKKPLYIPAVLRKVSETNITNDDLLNATLSSYYKKASNLEHGFNPSKSQSASVQNANNLRIISSQSSVQSNTSSILESYKNKISSYLFPNSIPNSDRINLIPTISNRNSARVNPPTKDHWIPDSKRNSCRYCHKPFTLWERKHHCRHCGDIFCQDHLRHWLYLDSQANFIMINELNNGGINGGGTLCKICDDCLVEYENLSTTNHNANTNEDNINVEEGEDDDNDNRKKLRNYYKNRQMNALFRPKKGGSSQEHATVDRDTTTPIQVKSNDEEADNENTGGEQEEGNDVLGSVIGSVPTNWNWSSF
response (25 mM Gln, parent: est. 6.2): 3.5
response [1]: 0.6
